Positions count from the first letter of the chain named. Names may count otherwise.
Target: the molecule itself
Assay: non-dissociating Western blot (WB-ND); lysates of vaccinia-infected BSC-1 cells (18 hpi) mixed with 2x non-dissociating sample buffer (62.5 mM Tris-HCl pH 6.8, 0.8% SDS, 20% glycerol), 30 min on ice, not boiled; 12% SDS-PAGE in a cold room; blot with anti-NSP3 rat serum; stable dimer band (68 kDa) told apart from monomer/dimerization intermediate band (34 kDa); cells with MG132 or DMSO, in one experiment with …

B1: wild type NSP3 (non-structural protein 3) of simian species A rotavirus strain RRV (natural protein)
chain: MESTQQMASSIINSSFEAAVVAATSTLELMGIQYDYNEVYTRVKSKFDLVMDDSGVKNNLIGKAITIDQALNGKFSSAIRNRNWMTDSRTVAKLDEDVNKLRIMLSSKGIDQKMRVLNACFSVKRIPGKSSSIVKCTRLMKDKLERGEVEVDDSFVEEKMEVDTIDWKSRYEQLEKRFESLKHRVNEKYNHWVLKARKVNENMNSLQNVISQQQAHINELQMYNNKLERDLQSKIGSVVSSIEWYLRSMELSDDVKSDIEQQLNSIDQLNPVNAIDDFESILRNLISDYDRLFIMFKGLLQQCNYTYTYE
notes: also called wtNSP3; RRV NSP3
Q: With B1 as the protein, how does the “stoichiometry N” value read?
A: Its value is 2.

B2: NSP3 W170A of rotavirus strain RRV (natural protein)
chain: B1 chain with W167A
notes: also called vNSP3_(W170A)
Q: What does the source list for B2?
A: fold lower accumulation of stable dimers than NSP3_(Y192A): 16 fold; fold lower accumulation of stable dimers than wtNSP3: 9 fold
